# ± gives the uncertainty stated by the source.
# B1: 1-phosphatidylinositol 4,5-bisphosphate phosphodiesterase gamma-2, residues 772 to 827; numbered along this chain, P16885 (parent)
# chain: RTVKALYDYKAKRSDELSFCRGALIHNVSKEPGGWWKGDYGTRIQQYFPSNYVEDI
# Variants of: B1
# Assay: abundance fitness (aPCA) (normalised: wild type 0, dead -1); higher = more abundant; growth selection in yeast, the domain comes from the species named
# Details: Homo sapiens
row,Variant,abundance fitness
1,RSVKALYDYKAKRSDELSFCRGALIHNVSKEPGGWWKGDYGTRIQQYFPSNYVEDI,-0.089 ± 0.085
2,RLVKALYDYKAKRSDELSFCRGALIHNVSKEPGGWWKGDYGTRIQQYFPSNYVEDI,-0.315 ± 0.1
3,RMVKALYDYKAKRSDELSFCRGALIHNVSKEPGGWWKGDYGTRIQQYFPSNYVEDI,-0.241 ± 0.15
4,RVVKALYDYKAKRSDELSFCRGALIHNVSKEPGGWWKGDYGTRIQQYFPSNYVEDI,0.037 ± 0.06
5,RWVKALYDYKAKRSDELSFCRGALIHNVSKEPGGWWKGDYGTRIQQYFPSNYVEDI,-0.883 ± 0.29
6,RKVKALYDYKAKRSDELSFCRGALIHNVSKEPGGWWKGDYGTRIQQYFPSNYVEDI,-0.207 ± 0.068
7,RNVKALYDYKAKRSDELSFCRGALIHNVSKEPGGWWKGDYGTRIQQYFPSNYVEDI,-0.587 ± 0.15
8,RIVKALYDYKAKRSDELSFCRGALIHNVSKEPGGWWKGDYGTRIQQYFPSNYVEDI,-0.111 ± 0.16
9,RHVKALYDYKAKRSDELSFCRGALIHNVSKEPGGWWKGDYGTRIQQYFPSNYVEDI,-0.603 ± 0.12
10,RQVKALYDYKAKRSDELSFCRGALIHNVSKEPGGWWKGDYGTRIQQYFPSNYVEDI,-0.094 ± 0.11
11,RYVKALYDYKAKRSDELSFCRGALIHNVSKEPGGWWKGDYGTRIQQYFPSNYVEDI,-0.177 ± 0.4
12,RTVMALYDYKAKRSDELSFCRGALIHNVSKEPGGWWKGDYGTRIQQYFPSNYVEDI,-0.127 ± 0.11
13,RTVYALYDYKAKRSDELSFCRGALIHNVSKEPGGWWKGDYGTRIQQYFPSNYVEDI,0.019 ± 0.15
14,RTVIALYDYKAKRSDELSFCRGALIHNVSKEPGGWWKGDYGTRIQQYFPSNYVEDI,0.049 ± 0.14
15,RTVDALYDYKAKRSDELSFCRGALIHNVSKEPGGWWKGDYGTRIQQYFPSNYVEDI,-0.809 ± 0.47
16,RTVSALYDYKAKRSDELSFCRGALIHNVSKEPGGWWKGDYGTRIQQYFPSNYVEDI,-0.514 ± 0.13
17,RTVFALYDYKAKRSDELSFCRGALIHNVSKEPGGWWKGDYGTRIQQYFPSNYVEDI,-0.393 ± 0.16
18,RTVTALYDYKAKRSDELSFCRGALIHNVSKEPGGWWKGDYGTRIQQYFPSNYVEDI,-0.288 ± 0.13
19,RTVGALYDYKAKRSDELSFCRGALIHNVSKEPGGWWKGDYGTRIQQYFPSNYVEDI,-0.782 ± 0.11
20,RTVQALYDYKAKRSDELSFCRGALIHNVSKEPGGWWKGDYGTRIQQYFPSNYVEDI,-0.148 ± 0.15
21,RTVEALYDYKAKRSDELSFCRGALIHNVSKEPGGWWKGDYGTRIQQYFPSNYVEDI,-0.216 ± 0.06
22,RTVVALYDYKAKRSDELSFCRGALIHNVSKEPGGWWKGDYGTRIQQYFPSNYVEDI,0.055 ± 0.07
23,RTVAALYDYKAKRSDELSFCRGALIHNVSKEPGGWWKGDYGTRIQQYFPSNYVEDI,-0.259 ± 0.084
24,RTVRALYDYKAKRSDELSFCRGALIHNVSKEPGGWWKGDYGTRIQQYFPSNYVEDI,-0.205 ± 0.053

row,Variant,abundance fitness
1,RTVCALYDYKAKRSDELSFCRGALIHNVSKEPGGWWKGDYGTRIQQYFPSNYVEDI,-0.068 ± 0.11
2,RTVWALYDYKAKRSDELSFCRGALIHNVSKEPGGWWKGDYGTRIQQYFPSNYVEDI,-0.375 ± 0.16
3,RTVKGLYDYKAKRSDELSFCRGALIHNVSKEPGGWWKGDYGTRIQQYFPSNYVEDI,-0.868 ± 0.13
4,RTVKWLYDYKAKRSDELSFCRGALIHNVSKEPGGWWKGDYGTRIQQYFPSNYVEDI,-0.955 ± 0.19
5,RTVKPLYDYKAKRSDELSFCRGALIHNVSKEPGGWWKGDYGTRIQQYFPSNYVEDI,-0.95 ± 0.07
6,RTVKELYDYKAKRSDELSFCRGALIHNVSKEPGGWWKGDYGTRIQQYFPSNYVEDI,-0.908 ± 0.12
7,RTVKILYDYKAKRSDELSFCRGALIHNVSKEPGGWWKGDYGTRIQQYFPSNYVEDI,-0.903 ± 0.072
8,RTVKVLYDYKAKRSDELSFCRGALIHNVSKEPGGWWKGDYGTRIQQYFPSNYVEDI,-0.965 ± 0.12
9,RTVKFLYDYKAKRSDELSFCRGALIHNVSKEPGGWWKGDYGTRIQQYFPSNYVEDI,-0.895 ± 0.07
10,RTVKRLYDYKAKRSDELSFCRGALIHNVSKEPGGWWKGDYGTRIQQYFPSNYVEDI,-0.896 ± 0.089
11,RTVKKLYDYKAKRSDELSFCRGALIHNVSKEPGGWWKGDYGTRIQQYFPSNYVEDI,-0.998 ± 0.13
12,RTVKQLYDYKAKRSDELSFCRGALIHNVSKEPGGWWKGDYGTRIQQYFPSNYVEDI,-0.865 ± 0.15
13,RTVKLLYDYKAKRSDELSFCRGALIHNVSKEPGGWWKGDYGTRIQQYFPSNYVEDI,-0.999 ± 0.066
14,RTVKNLYDYKAKRSDELSFCRGALIHNVSKEPGGWWKGDYGTRIQQYFPSNYVEDI,-0.964 ± 0.099
15,RTVKMLYDYKAKRSDELSFCRGALIHNVSKEPGGWWKGDYGTRIQQYFPSNYVEDI,-0.942 ± 0.082
16,RTVKSLYDYKAKRSDELSFCRGALIHNVSKEPGGWWKGDYGTRIQQYFPSNYVEDI,-0.503 ± 0.042
17,RTVKHLYDYKAKRSDELSFCRGALIHNVSKEPGGWWKGDYGTRIQQYFPSNYVEDI,-0.976 ± 0.084
18,RTVKALSDYKAKRSDELSFCRGALIHNVSKEPGGWWKGDYGTRIQQYFPSNYVEDI,-0.109 ± 0.078
19,RTVKALGDYKAKRSDELSFCRGALIHNVSKEPGGWWKGDYGTRIQQYFPSNYVEDI,-0.35 ± 0.051
20,RTVKALQDYKAKRSDELSFCRGALIHNVSKEPGGWWKGDYGTRIQQYFPSNYVEDI,0.2 ± 0.093
21,RTVKALMDYKAKRSDELSFCRGALIHNVSKEPGGWWKGDYGTRIQQYFPSNYVEDI,-0.059 ± 0.079
22,RTVKALRDYKAKRSDELSFCRGALIHNVSKEPGGWWKGDYGTRIQQYFPSNYVEDI,0.169 ± 0.073
23,RTVKALVDYKAKRSDELSFCRGALIHNVSKEPGGWWKGDYGTRIQQYFPSNYVEDI,-0.2 ± 0.065
